One assay concerns the target YY1 (UniProt P25490). Put plainly: co-IP. The following applies: reference: HA-OTUD3 wild type; sites S326.
Assay [1] concerns the target T1, Flag-tagged YY1 (Yin Yang 1), full length, wild type (UniProt P25490 1-414).
T1 construct: Yin Yang 1 (YY1), zinc finger transcription factor, full-length wild type cloned into pCDNA3.1-CMV-Flag-C; The vector name pCDNA3.1-CMV-Flag-C may mean a C-terminal tag; also called Flag-YY1; YY1-WT; source: SW480, transfected, in lysate
Put plainly: pull-down; GST or GST-OTUD3 (E. coli) incubated overnight at 4 °C with purified Flag-YY1 or Myc-PLK1 from HEK-293T; Glutathione-Sepharose 4B beads; immunoblot with anti-Flag or anti-Myc. To be noted: both partners purified.

Assay [2] concerns the target T2, Myc-tagged PLK1 (wild-type) (UniProt P53350 1-603).
T2 construct: Polo-like kinase 1 (PLK1), wild type, cloned into pCDNA3.1-CMV-Myc-C; The vector name pCDNA3.1-CMV-Myc-C may mean a C-terminal tag; also called Myc-PLK1; source: SW480, transfected, in lysate
The description is as above. To be noted: both partners purified.

T1 sequence (P25490 whole entry): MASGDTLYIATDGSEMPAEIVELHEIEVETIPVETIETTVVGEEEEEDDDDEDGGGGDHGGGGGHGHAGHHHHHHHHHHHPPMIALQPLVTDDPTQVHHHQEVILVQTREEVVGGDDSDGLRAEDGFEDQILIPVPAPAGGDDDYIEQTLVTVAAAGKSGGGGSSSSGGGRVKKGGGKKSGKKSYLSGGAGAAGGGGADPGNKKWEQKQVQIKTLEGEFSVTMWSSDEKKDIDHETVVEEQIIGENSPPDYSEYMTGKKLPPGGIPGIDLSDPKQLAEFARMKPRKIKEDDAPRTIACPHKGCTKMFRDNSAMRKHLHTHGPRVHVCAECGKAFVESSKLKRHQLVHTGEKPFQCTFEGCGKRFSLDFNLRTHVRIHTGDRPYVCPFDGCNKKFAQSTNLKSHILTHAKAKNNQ
T2 sequence (P53350 whole entry): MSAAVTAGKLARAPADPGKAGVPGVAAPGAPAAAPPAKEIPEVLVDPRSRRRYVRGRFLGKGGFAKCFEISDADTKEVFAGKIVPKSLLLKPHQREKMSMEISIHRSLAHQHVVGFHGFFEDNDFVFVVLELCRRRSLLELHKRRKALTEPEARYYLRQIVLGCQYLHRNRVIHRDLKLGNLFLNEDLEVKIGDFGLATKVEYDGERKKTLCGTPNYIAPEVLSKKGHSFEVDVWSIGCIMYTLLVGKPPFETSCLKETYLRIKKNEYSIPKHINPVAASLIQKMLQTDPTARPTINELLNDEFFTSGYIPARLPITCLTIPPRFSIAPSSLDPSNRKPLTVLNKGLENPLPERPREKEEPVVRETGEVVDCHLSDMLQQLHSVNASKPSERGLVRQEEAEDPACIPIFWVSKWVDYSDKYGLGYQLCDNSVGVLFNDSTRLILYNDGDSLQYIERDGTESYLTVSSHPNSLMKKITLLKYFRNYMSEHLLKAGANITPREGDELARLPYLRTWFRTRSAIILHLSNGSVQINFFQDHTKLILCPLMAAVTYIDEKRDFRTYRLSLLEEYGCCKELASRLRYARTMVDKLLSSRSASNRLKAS

For the molecule “OTUD3 (from UniProt Q5T2D3) HA-OTUD3 S326A”, the “binding against the reference” value in the assay with YY1 is recorded as “weaker”.

B1: GST-OTUD3 recombinant protein (enzyme, human, UniProt Q5T2D3 1-398, looked up)
chain: MSRKQAAKSRPGSGSRKAEAERKRDERAARRALAKERRNRPESGGGGGCEEEFVSFANQLQALGLKLREVPGDGNCLFRALGDQLEGHSRNHLKHRQETVDYMIKQREDFEPFVEDDIPFEKHVASLAKPGTFAGNDAIVAFARNHQLNVVIHQLNAPLWQIRGTEKSSVRELHIAYRYGEHYDSVRRINDNSEAPAHLQTDFQMLHQDESNKREKIKTKGMDSEDDLRDEVEDAVQKVCNATGCSDFNLIVQNLEAENYNIESAIIAVLRMNQGKRNNAEENLEPSGRVLKQCGPLWEEGGSGARIFGNQGLNEGRTENNKAQASPSEENKANKNQLAKVTNKQRREQQWMEKKKRQEERHRHKALESRGSHRDNNRSEAEANTQVTLVKTFAALNI
notes: OTUD3 cloned into the pGEX-6P-1 vector; also called GST-tagged OTUD3; GST-labeled OTUD3; source: Escherichia coli BL21 (DE3), purified (Glutathione Sepharose 4B beads)
Take B1: the binding result in assay [1] and in assay [2] was “binds” each time.
